Experimental data: the supplement of paper PMC7877785
± gives the uncertainty stated by the source.

Assay: self-splicing fitness, log relative to wild type (ln ratio); higher = more splicing; Tetrahymena group I intron in knt gene, E. coli kanamycin selection, DiMSum; sequences stand for … in CUCUCU…GGAGGGAAAAGUUAUCAGGCAUGCACCUGGUAGCUAGUCUUUAAACCAAUAGAUUGCAUCGGUUUAAAAGGCAAGACCGUCAAAUUGCGGGAAAGGGGUCAACAGCCGUUCAGUACCAAGUCUCAGGGGAAACUUUGAGAUGGCCUUGCAAAGGGUAUGGUAAUAAGCUGACGGACAUGGUCCUAACCACGCAGCCAAGUCCUAAGUCAACAGAUCUUCUGUUGAUAUGGAUGCAGUUCACAGACUAAAUGUCGGUCGGGGAAGAUGUAUUCUUCUCAUAAGAUAUAGUCGGACCUCUCCUUAAUGGGAGCUAGCGGAUGAAGUGAUGCAACACUGGAGCCGCUGGGAACUAAUUUGUAUGCGAAAGUAUAUUGAUUAGUUUUGGAGUACUCGUGGUCG
How it was run: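 DiMSum derived fitness as the error-weighted combination of fold changes across replicates, kanamycin versus no kanamycin, normalised to wild type. E. coli BL21(DE3) held the library, which randomised all eight P1ex-region intron nucleotides within the knt kanamycin-resistance gene on pET-22b(+). Six replicate transformations grew overnight at 37°C or 30°C on LB agar with or without 25 μg/mL kanamycin, also containing 100 μg/mL carbenicillin, 50 μM IPTG and 0.2% rhamnose, and pooled colonies were amplicon-sequenced on an Illumina HiSeq 2500.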

Sequence	self-splicing fitness (ln) (30 °C)	self-splicing fitness (ln) (37 °C)
GCUGAGCAAUAUUACGGAUA	-2.7 ± 0.16	-1.8 ± 0.14
CAAGAGCAAUAUUACGUUAU	-4.08 ± 0.19	-2.78 ± 0.17
GAUAAGCAAUAUUACGCCCA	-0.168 ± 0.13	-0.865 ± 0.14
AAGGAGCAAUAUUACGGUAG	-3.82 ± 0.29	-2.75 ± 0.26
CUACAGCAAUAUUACGAGCA	-2.77 ± 0.16	-2.56 ± 0.23
GCACAGCAAUAUUACGAUCU	-0.54 ± 0.064	0.0668 ± 0.085
GGACAGCAAUAUUACGACCA	-1.46 ± 0.13	-0.645 ± 0.16
GCGAAGCAAUAUUACGUGUG	-2.61 ± 0.12	-1.67 ± 0.11
UUGAAGCAAUAUUACGGGUC	-3.77 ± 0.25	-1.71 ± 0.25
UACUAGCAAUAUUACGAAGA	-2.32 ± 0.19	-1.86 ± 0.25
UCUGAGCAAUAUUACGUACC	-3.19 ± 0.41	-1.96 ± 0.31
UCCAAGCAAUAUUACGGAUC	-3.49 ± 0.15	-2.9 ± 0.16
AGAGAGCAAUAUUACGUCGU	-3.77 ± 0.32	-1.78 ± 0.22
CUAUAGCAAUAUUACGCGUU	-4.27 ± 0.42	-2.18 ± 0.3
ACUCAGCAAUAUUACGAAGU	-3 ± 0.14	-1.75 ± 0.14
GAAGAGCAAUAUUACGCAAG	-3.6 ± 0.39	-2.68 ± 0.36
UGGAAGCAAUAUUACGACCU	0.308 ± 0.11	0.699 ± 0.12
UCUCAGCAAUAUUACGAGAU	-4.62 ± 0.46	-2.85 ± 0.35
AAUAAGCAAUAUUACGGAUC	-0.855 ± 0.087	-0.124 ± 0.14
AAACAGCAAUAUUACGCGCU	-1.03 ± 0.072	-0.289 ± 0.087
GAAGAGCAAUAUUACGAGUG	-4.54 ± 0.41	-2.81 ± 0.24

Sequence	self-splicing fitness (ln) (30 °C)	self-splicing fitness (ln) (37 °C)
AGGGAGCAAUAUUACGAGGA	-3.08 ± 0.33	
GCAGAGCAAUAUUACGGAAG	-2.98 ± 0.28	-1.65 ± 0.18
CAAGAGCAAUAUUACGAAGG	-2.06 ± 0.17	-0.821 ± 0.19
UCCUAGCAAUAUUACGUUUG	-3.11 ± 0.17	-3.36 ± 0.26
UAAAAGCAAUAUUACGUAAG	-1.01 ± 0.079	-0.764 ± 0.11
AAGUAGCAAUAUUACGGAUA	-2.1 ± 0.17	-1.66 ± 0.16
AAGGAGCAAUAUUACGCUGG	-2.18 ± 0.24	-2.24 ± 0.31
CACUAGCAAUAUUACGCCCG	0.71 ± 0.13	0.619 ± 0.12
GCUCAGCAAUAUUACGUCAG	-4.87 ± 0.42	-3.23 ± 0.16
GGAUAGCAAUAUUACGGUUU	-1.22 ± 0.093	-0.329 ± 0.11
ACGUAGCAAUAUUACGUACG	-2.3 ± 0.19	-1.35 ± 0.23
UGAGAGCAAUAUUACGGAAG	-3.67 ± 0.23	-2.2 ± 0.31
UCACAGCAAUAUUACGGCUA	-1.64 ± 0.095	-0.219 ± 0.077
UCUUAGCAAUAUUACGCCAG	-2.74 ± 0.27	
UCUAAGCAAUAUUACGUAGA	-1.2 ± 0.098	-0.771 ± 0.15
CCCUAGCAAUAUUACGUACC	-1.72 ± 0.18	-1.05 ± 0.3
UUACAGCAAUAUUACGAUGC	-3.18 ± 0.27	-2.95 ± 0.36
GCGGAGCAAUAUUACGCAGU	-3.68 ± 0.45	-1.79 ± 0.39
AUUUAGCAAUAUUACGUAGC	-3 ± 0.23	-1.64 ± 0.25
UCUCAGCAAUAUUACGCCGG	-2.33 ± 0.21	
GACAAGCAAUAUUACGAAAC	-2.29 ± 0.18	-2.5 ± 0.17

Sequence	self-splicing fitness (ln) (30 °C)	self-splicing fitness (ln) (37 °C)
UCUUAGCAAUAUUACGGGUG	-0.927 ± 0.055	-0.165 ± 0.069
UUCAAGCAAUAUUACGUGAU	-1.8 ± 0.096	-0.468 ± 0.11
GUAGAGCAAUAUUACGCUGA	-2.33 ± 0.11	-1.15 ± 0.14
AGUGAGCAAUAUUACGCGUA	-1.97 ± 0.27	-1.48 ± 0.17
CCUCAGCAAUAUUACGCUAC	-1.66 ± 0.33	
ACGCAGCAAUAUUACGAGGG	-3.71 ± 0.18	-2.77 ± 0.21
CGACAGCAAUAUUACGUAUA	-4.3 ± 0.47	-1.54 ± 0.27
CAGCAGCAAUAUUACGUUCA	-2.17 ± 0.2	-0.173 ± 0.17
CCGAAGCAAUAUUACGAAAG	-1.21 ± 0.073	-0.965 ± 0.092
AACCAGCAAUAUUACGUGGG	-3.94 ± 0.12	-2.57 ± 0.094
UCGUAGCAAUAUUACGUUAG	-3.83 ± 0.3	-2.1 ± 0.46
UCCCAGCAAUAUUACGGUGU	-0.353 ± 0.043	0.504 ± 0.055
GCUUAGCAAUAUUACGCGCU	-2.33 ± 0.16	-2.47 ± 0.21
GAUUAGCAAUAUUACGUGCC	0.747 ± 0.28	-0.667 ± 0.46
UGACAGCAAUAUUACGAUUU	-0.733 ± 0.094	-0.108 ± 0.1
CUUGAGCAAUAUUACGUAUC	-3.35 ± 0.19	-3.22 ± 0.33
GUCGAGCAAUAUUACGCUCU	-1.61 ± 0.24	-1.39 ± 0.23
UGGAAGCAAUAUUACGCCCG	-0.383 ± 0.22	0.191 ± 0.27
ACUCAGCAAUAUUACGCACA	-0.835 ± 0.083	-0.539 ± 0.1
